{"source": "paper PMC8685725", "about": "(Proceedings of the National Academy of Sciences of the …, 2021)", "key": {"[1]": {"molecular_target": "T1, GFP-linked full-length hnRNPH1 (amino acids 2 through 449) (human (cDNA library from HEK-293T cells), UniProt P31943 2-449)", "T1 sequence": "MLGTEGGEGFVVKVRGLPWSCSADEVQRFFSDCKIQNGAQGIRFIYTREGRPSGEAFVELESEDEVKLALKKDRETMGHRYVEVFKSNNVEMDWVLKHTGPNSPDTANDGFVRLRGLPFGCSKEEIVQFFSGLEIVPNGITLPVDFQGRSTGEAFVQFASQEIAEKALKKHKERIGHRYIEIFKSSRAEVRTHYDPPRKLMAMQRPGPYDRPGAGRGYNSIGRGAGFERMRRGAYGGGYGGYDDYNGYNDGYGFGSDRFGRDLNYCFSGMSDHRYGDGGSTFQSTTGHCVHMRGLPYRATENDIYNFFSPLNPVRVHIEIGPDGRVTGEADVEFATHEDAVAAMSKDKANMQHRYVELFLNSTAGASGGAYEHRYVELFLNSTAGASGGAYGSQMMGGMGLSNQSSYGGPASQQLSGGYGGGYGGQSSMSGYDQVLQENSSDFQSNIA", "experiment": "hydrogel-binding assay"}, "[2]": {"molecular_target": "T2, GFP:hnRNPH1-LC1, His tag cleaved, as liquid-like droplets (human (cDNA library from HEK-293T cells), UniProt P31943 192-280)", "T2 sequence": "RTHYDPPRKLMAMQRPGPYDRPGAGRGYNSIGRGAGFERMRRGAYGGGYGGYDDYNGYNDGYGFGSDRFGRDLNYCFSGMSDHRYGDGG", "experiment": "LLD incorporation assay"}}}
{"binder": "mCherry-linked C-terminal half of hnRNPH1 (amino acids 192 through 449), as hydrogel droplets or polymers (domain or fragment) RTHYDPPRKLMAMQRPGPYDRPGAGRGYNSIGRGAGFERMRRGAYGGGYGGYDDYNGYNDGYGFGSDRFGRDLNYCFSGMSDHRYGDGGSTFQSTTGHCVHMRGLPYRATENDIYNFFSPLNPVRVHIEIGPDGRVTGEADVEFATHEDAVAAMSKDKANMQHRYVELFLNSTAGASGGAYEHRYVELFLNSTAGASGGAYGSQMMGGMGLSNQSSYGGPASQQLSGGYGGGYGGQSSMSGYDQVLQENSSDFQSNIA", "values": [{"measurement": "binding result", "setting": "[1]", "value": "binds"}]}
{"binder": "mCherry-linked LC1 domain of hnRNPH1 (amino acids 192 through 280), His tag cleaved (domain or fragment) RTHYDPPRKLMAMQRPGPYDRPGAGRGYNSIGRGAGFERMRRGAYGGGYGGYDDYNGYNDGYGFGSDRFGRDLNYCFSGMSDHRYGDGG", "values": [{"measurement": "binding result", "setting": "[2]", "value": "binds"}]}
